{"source": "paper PMC3950713", "assay_in_all_cases": "MST", "key": {"[1]": {"target": "T1, HpDprA(5-217)R143E (Helicobacter pylori 26695, UniProt O25100 5-217, R143E)", "T1 sequence": "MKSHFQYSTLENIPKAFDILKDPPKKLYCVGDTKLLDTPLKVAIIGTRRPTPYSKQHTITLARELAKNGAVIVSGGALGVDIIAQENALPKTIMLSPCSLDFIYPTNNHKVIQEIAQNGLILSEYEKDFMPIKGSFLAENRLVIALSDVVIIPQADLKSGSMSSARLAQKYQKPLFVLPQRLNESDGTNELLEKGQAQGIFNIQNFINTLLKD"}, "[2]": {"target": "T2, HpDprA(5-217)R52E (Helicobacter pylori 26695, UniProt O25100 5-217, R52E)", "T2 sequence": "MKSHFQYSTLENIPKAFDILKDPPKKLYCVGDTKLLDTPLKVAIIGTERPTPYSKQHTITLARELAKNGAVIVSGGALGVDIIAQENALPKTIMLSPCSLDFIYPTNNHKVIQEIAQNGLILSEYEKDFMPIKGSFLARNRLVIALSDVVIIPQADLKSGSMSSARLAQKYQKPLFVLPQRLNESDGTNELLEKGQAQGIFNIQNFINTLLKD"}, "[3]": {"target": "T3, HpDprA(5-217)R52E/R143E (Helicobacter pylori 26695, UniProt O25100 5-217, R52E;R143E)", "T3 sequence": "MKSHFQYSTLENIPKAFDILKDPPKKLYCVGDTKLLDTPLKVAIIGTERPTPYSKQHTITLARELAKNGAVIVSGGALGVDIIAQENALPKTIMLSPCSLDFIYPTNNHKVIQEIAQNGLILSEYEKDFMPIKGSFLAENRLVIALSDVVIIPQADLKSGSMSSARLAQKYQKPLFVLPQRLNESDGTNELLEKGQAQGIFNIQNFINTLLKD"}, "[4]": {"target": "T4, HpDprA(5-217)H8E (Helicobacter pylori 26695, UniProt O25100 5-217, H8E)", "T4 sequence": "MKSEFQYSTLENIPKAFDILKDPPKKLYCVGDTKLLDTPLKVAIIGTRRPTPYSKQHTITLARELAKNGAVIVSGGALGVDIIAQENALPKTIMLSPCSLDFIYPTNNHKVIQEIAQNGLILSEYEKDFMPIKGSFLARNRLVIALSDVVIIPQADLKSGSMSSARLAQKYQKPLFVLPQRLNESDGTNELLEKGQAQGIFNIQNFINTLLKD"}, "[5]": {"target": "T5, HpDprA(5-217)Y11E (Helicobacter pylori 26695, UniProt O25100 5-217, Y11E)", "T5 sequence": "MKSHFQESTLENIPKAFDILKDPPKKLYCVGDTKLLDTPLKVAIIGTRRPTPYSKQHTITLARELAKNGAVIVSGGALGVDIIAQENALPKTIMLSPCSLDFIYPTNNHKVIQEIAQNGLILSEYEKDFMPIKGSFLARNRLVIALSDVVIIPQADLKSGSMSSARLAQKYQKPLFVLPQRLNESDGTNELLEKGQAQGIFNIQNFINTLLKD"}, "[6]": {"target": "T6, HpDprA(5-225) (Helicobacter pylori 26695, UniProt O25100 5-225)", "T6 sequence": "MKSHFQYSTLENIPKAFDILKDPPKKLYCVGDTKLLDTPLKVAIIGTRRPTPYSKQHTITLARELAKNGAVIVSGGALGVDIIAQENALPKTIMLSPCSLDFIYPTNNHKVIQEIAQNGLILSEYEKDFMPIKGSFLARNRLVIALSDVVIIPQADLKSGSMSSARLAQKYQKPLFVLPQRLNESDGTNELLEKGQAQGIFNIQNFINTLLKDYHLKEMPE"}, "[7]": {"target": "T7, HpDprA(5-217)Y108E (Helicobacter pylori 26695, UniProt O25100 5-217, Y108E)", "T7 sequence": "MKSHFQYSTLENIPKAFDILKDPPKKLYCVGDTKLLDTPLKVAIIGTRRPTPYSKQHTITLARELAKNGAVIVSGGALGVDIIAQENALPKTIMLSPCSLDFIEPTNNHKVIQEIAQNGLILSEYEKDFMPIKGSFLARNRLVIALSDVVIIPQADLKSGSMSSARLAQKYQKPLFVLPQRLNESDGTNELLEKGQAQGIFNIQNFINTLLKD"}}}
{"binder": "TTTTTTTTTTTTTTTTTTTTTTTTTTTTTTTTTTT (ssDNA)", "note": "[dT35]", "values": [{"measurement": "Kd", "setting": "[1]", "result": "5470 ± 246", "unit": "nM"}, {"measurement": "Kd", "setting": "[2]", "result": "9950 ± 367", "unit": "nM"}, {"measurement": "binding result", "setting": "[3]", "result": "no binding"}, {"measurement": "Kd", "setting": "[4]", "result": "66.3 ± 0.721", "unit": "nM"}, {"measurement": "Kd", "setting": "[5]", "result": "55.9 ± 1.82", "unit": "nM"}, {"measurement": "Kd", "setting": "[6]", "result": "30.6 ± 0.998", "unit": "nM"}, {"measurement": "Kd", "setting": "[7]", "result": "351 ± 6.88", "unit": "nM"}]}
